For experiment [1], the target named is recombinant mature interleukin-8 (IL-8) (human). The experiment can be described thus: time-resolved fluorometric immunoassay (TRFIA); 6 pmol IL-8 or IL-1β coated on wells; C-His-emHofQ 10-740 nM in Delfia Assay Buffer, RT 1 h; Eu-N1 anti-6xHis antibody; one-to-one fit.
The target in experiment [2] is human mature interleukin-1β (IL-1β, amino acids 117-269) (human). Described as above.
Experiment [3] has as its target recombinant mature interleukin-8 (IL-8) (human). The experiment is described as follows: time-resolved fluorometric immunoassay (TRFIA); 60 pmol IL-8 or IL-1β coated on wells; emHofQ wild type and mutants 5 nM-2 μM, 4°C overnight; Eu-N1 anti-6xHis antibody; apparent Kd.
Experiment [4] has as its target human mature interleukin-1β (IL-1β, amino acids 117-269) (human). Described as above.
In experiment [5] the target is recombinant mature interleukin-8 (IL-8) (human). The experiment is described as follows: ELISA; cytokines (6 pmol per well) coated on Maxisorp plates; 490 nM emHofQ with C-terminal 8-His tail in PBS, 4°C overnight; detection with His-Probe-HRP; values compared with BSA control. A general note: An ELISA detects its analyte on a solid surface through an enzyme-linked reagent.

The target in experiment [6] is human mature interleukin-1β (IL-1β, amino acids 117-269) (human). The description is as above.
Experiment [7] has the same target. The experiment is described as follows: thermal shift assay (differential scanning fluorometry); PBS, SYPRO orange; 5 μM emHofQ with 5-200 μM IL-8, or 5 μM IL-1β with 2.5-50 μM emHofQ; heated 20-99°C. For orientation: In DSF a fluorescence change marks the thermal transition of the protein.
Experiment [8] deals with N-His-emHofQ (Aggregatibacter actinomycetemcomitans). The experiment can be described thus: SPR; Biacore X; N-His-emHofQ coupled to Ni-NTA chip (115-199 RU); IL-8 injected at 1-15 000 nM, 30 μl/min; 10 mM HEPES, 150 mM NaCl, 0.005% P-20, pH 7.4; one-site binding model; apparent. (In general: SPR reads the build-up and loss of mass on a sensor chip optically.)
Experiment [9] deals with recombinant emHofQ (without a His tail) (Aggregatibacter actinomycetemcomitans). The experiment can be described thus: thermal shift assay (differential scanning fluorometry); PBS, SYPRO orange; 5 μM emHofQ with 5-200 μM IL-8, or 5 μM IL-1β with 2.5-50 μM emHofQ; heated 20-99°C.

Here are results for six substances from PMC6086316.

Sequence of human mature interleukin-1β (IL-1β, amino acids 117-269) (human) (P01584 117-269): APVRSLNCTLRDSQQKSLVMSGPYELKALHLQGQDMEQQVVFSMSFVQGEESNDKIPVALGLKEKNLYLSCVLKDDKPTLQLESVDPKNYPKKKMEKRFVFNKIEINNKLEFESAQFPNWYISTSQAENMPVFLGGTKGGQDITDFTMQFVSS

For the substance “C-His emHofQ (extramembranous domain of the secretin HofQ, C-terminal His tag) (domain or fragment)”, the Kd stood at 43 nM in [1], 140 nM in experiment [2], 44 nM in [3] and 90 nM in [4]. The fold binding over the control (BSA) turned out to be 4 fold in experiment [5] and 1.3 fold in experiment [6].

“emHofQ_L1 (H136A, F137A, K139A) (domain or fragment)”: the Kd in [3] is 190 nM.

For “emHofQ_L1L2 (H136A, F137A, K139A, D165A, R166A) (domain or fragment)”, the Kd in [3] worked out at 200 nM.

In the case of “emHofQ_L2 (D165A, R166A) (domain or fragment)”, in [3], the Kd was determined as 110 nM.

In the case of “recombinant emHofQ (without a His tail) (domain or fragment)”, the Tm of IL-1β with 50 μM emHofQ (60.2°C without) in experiment [7] amounted to 55.8 °C.

In the case of “recombinant mature interleukin-8 (IL-8) (natural protein)”, the Kd in [8] is 2400 nM. The Tm of emHofQ with 200 μM IL-8 (45.3°C without) in experiment [9] is 51.7 °C.
